# According to IntAct's records for PubMed 34039996:
# B1: Plexin-A4 (Mus musculus), Q80UG2 (parent)
# chain: MKAMPWNWTCLLSHLLVVGMGSSTLLPRQPPQLSQKPSFVTFRGEPAEGFNHLVVDERTGHIYLGAVNRIYKLSSDLKVLVTHQTGPDEDNPKCYPPRIVQTCNEPLASTNNVNKMLLIDYKENRLIACGSLYQGICKLLRLEDLFKLGEPFHKKEHYLSGVNESGSVFGVIVSYSNFDDKLFIATAVDGKPEYFPTISSRKLTKNSEADGMFAYVFHDEFVASMIKIPSDTFTVIPDFDIYYVYGFSSGNFVYFLTLQPEMVSPPGSTTKEQVYTSKLVRLCKEDTAFNSYVEVPIGCERNGVEYRLLQAAYLSKAGAVLGRTLGVRPDDDLLFTVFSKGQKRKMKSLDESALCIFILKQINDRIKDRLQSCYRGEGTLDLAWLKVKDIPCSSALLTIDDNFCGLDMNAPLGVSEMVRGIPVFTEDRDRMTSVIAYVYKNHSLAFVGTKSGKLKKIRVDGPKGNALQYETVQVVDSGPVLRDMAFSKDHEQLYIMSERQLTRVPVESCGQYRSCGECLGSGDPHCGWCVLHNTCTRKERCERSREPRRFASEMKQCVRLTVHPNNISVSQYNVLLVLETYNVPELSAGVNCTFEDLSEMDGLVIGNQIQCYSPAAKEVPRIITENGDHHVVQLQLKSKETGMTFASTSFVFYNCSVHNSCLSCVESPYRCHWCKYRHVCTHDPNTCSFQEGRVKLPEDCPQLLRVDKILVPVEVIKPITLKAKNLPQPQSGQRGYECILNIQGIEQRVPALRFNSSSVQCQNTSYSYEGMEINNLPVELTVVWNGHFNIDNPAQNKVYLYKCGAMRESCGLCLKADPDFECGWCQSPGQCTLRQHCPAHESRWLELSGANSKCTNPRITEIIPVTGPREGGTKVTIRGENLGLEFRDIASHVKVAGVECSPLVDGYIPAEQIVCEMGEAKPSQHAGFVEICVAVCRPEFMARSSQLYYFMTLTLADLKPNRGPMSGGTQVTITGTNLNAGSNVVVMFGSQPCLFHRRSPSYIICNTTSSEEVLDMKVTVQVDRARIRQDLVFQYVEDPTIVRIEPEWSIVSGNTPIAVWGTHLDLIQNPQIRAKHGGKEHINICEVLNATEMTCQAPALALGPDHQSDLTERPEEFGFILDNVQSLLILNKTNFTYYPNPVFEAFSPSGILELKPGTPIILKGKNLIPPVAGGNVKLNYTVLVGEKPCTVTVSDVQLLCESPNLIGRHKVMARVGGMEYSPGMVYIAPDSPLSLPAIVSIAVAGGLLIIFIVAVLIAYKRKSRESDLTLKRLQMQMDNLESRVALECKEAFAELQTDIHELTSDLDGAGIPFLDYRTYTMRVLFPGIEDHPVLRDLEVPGYRQERVEKGLKLFAQLINNKVFLLSFIRTLESQRSFSMRDRGNVASLIMTVLQSKLEYATDVLKQLLADLIDKNLESKNHPKLLLRRTESVAEKMLTNWFTFLLYKFLKECAGEPLFSLFCAIKQQMEKGPIDAITGEARYSLSEDKLIRQQIEYKTLVLSCVSPDNVNSPEVPVKILNCDTITQVKEKILDAIFKNVPCSHRPKAADMDLEWRQGSGARMILQDEDITTKIENDWKRLNTVAHYQVPDGSVVALVSKQVTAYNAVNNSTVSRTSASKYENMIRYTGSPDSLRSRTPMITPDLESGVKLWHLVKNHEHGDQKEGDRGSKMVSEIYLTRLLATKGTLQKFVDDLFETIFSTAHRGSALPLAIKYMFDFLDEQADKHGIHDPHVRHTWKSNCLPLRFWVNMIKNPQFVFDIHKNSITDACLSVVAQTFMDSCSTSEHRLGKDSPSNKLLYAKDIPSYKNWVERYYSDIGKMPAISDQDMNAYLAEQSRMHMNEFNTMSALSEIFSYVGKYSEEILGPLDHDDQCGKQKLAYKLEQVITLMSLDS
# B2: Neuropilin-1 (Mus musculus), P97333 (parent)
# chain: MERGLPLLCATLALALALAGAFRSDKCGGTIKIENPGYLTSPGYPHSYHPSEKCEWLIQAPEPYQRIMINFNPHFDLEDRDCKYDYVEVIDGENEGGRLWGKFCGKIAPSPVVSSGPFLFIKFVSDYETHGAGFSIRYEIFKRGPECSQNYTAPTGVIKSPGFPEKYPNSLECTYIIFAPKMSEIILEFESFDLEQDSNPPGGMFCRYDRLEIWDGFPEVGPHIGRYCGQKTPGRIRSSSGVLSMVFYTDSAIAKEGFSANYSVLQSSISEDFKCMEALGMESGEIHSDQITASSQYGTNWSVERSRLNYPENGWTPGEDSYKEWIQVDLGLLRFVTAVGTQGAISKETKKKYYVKTYRVDISSNGEDWISLKEGNKAIIFQGNTNPTDVVLGVFSKPLITRFVRIKPVSWETGISMRFEVYGCKITDYPCSGMLGMVSGLISDSQITASNQADRNWMPENIRLVTSRTGWALPPSPHPYTNEWLQVDLGDEKIVRGVIIQGGKHRENKVFMRKFKIAYSNNGSDWKTIMDDSKRKAKSFEGNNNYDTPELRTFSPLSTRFIRIYPERATHSGLGLRMELLGCEVEAPTAGPTTPNGNPVDECDDDQANCHSGTGDDFQLTGGTTVLATEKPTIIDSTIQSEFPTYGFNCEFGWGSHKTFCHWEHDSHAQLRWSVLTSKTGPIQDHTGDGNFIYSQADENQKGKVARLVSPVVYSQSSAHCMTFWYHMSGSHVGTLRVKLRYQKPEEYDQLVWMVVGHQGDHWKEGRVLLHKSLKLYQVIFEGEIGKGNLGGIAVDDISINNHISQEDCAKPTDLDKKNTEIKIDETGSTPGYEGEGEGDKNISRKPGNVLKTLDPILITIIAMSALGVLLGAVCGVVLYCACWHNGMSERNLSALENYNFELVDGVKLKKDKLNPQSNYSEA
# Variants of: B1
# Conditions: with nrp1_mouse Nrp1, P97333
row,effect of a mutation on the interaction,Variant
1,with no effect,K343E

# Variants of: B2
# Conditions: with plxa4_mouse Plxna4, Q80UG2
row,effect of a mutation on the interaction,Variant
1,with no effect,E128R
2,with no effect,H74A
3,with no effect,S251E
4,with no effect,A252E
